Target: human CD44v6 on antigen-positive FaDu cells (human) (UniProt P16070)
Experiment: flow cytometry (FACS) on antigen-positive FaDu cells, on ice 1 h, FITC-labeled anti-human IgG detection

## BIWI 1 (from UniProt P0DOX5 2-449)
  Kd: 1.8 nM

B1: BIWA 4 (antibody, human IgG1, kappa, V domains shown)
VH: EVQLVESGGGLVKPGGSLRLSCAASGFTFSSYDMSWVRQAPGKGLEWVSTISSGGSYTYYLDSIKGRFTISRDNAKNSLYLQMNSLRAEDTAVYYCARQGLDYWGRGTLVTVSS
VL: EIVLTQSPATLSLSPGERATLSCSASSSINYIYWYQQKPGQAPRLLIYLTSNLASGVPARFSGSGSGTDFTLTISSLEPEDFAVYYCLQWSSNPLTFGGGTKVEIKR
  Kd: 1 nM
